Data: patent US20250154198A1, “PEPTIDE INHIBITORS OF INTERLEUKIN-23 RECEPTOR” (Zealand Pharma A/S, priority 2021, published 2025)
Like-named read-outs stand apart in the source and are kept apart here. *1 amine or outer side, *2 acyl side, *3 side chain or, on linkers, in order; H or OH if unused. Bridges are numbered along the chain shown (N, C = ends). [ ]: non-standard residue; d: D form. 2Nal = N[C@@H](Cc1ccc2ccccc2c1)C(=O)O; CH2COCH2 = O=C(C[*:1])C[*:2]; 3Amb = NCc1cccc(C(=O)O)c1

Assays:
[1] = molecular target: T1, human IL-23R endogenously expressed on DB cells (CRL-2289) (human, UniProt Q5VWK5 24-629); experiment: cell-based or functional assay
T1 sequence (looked up): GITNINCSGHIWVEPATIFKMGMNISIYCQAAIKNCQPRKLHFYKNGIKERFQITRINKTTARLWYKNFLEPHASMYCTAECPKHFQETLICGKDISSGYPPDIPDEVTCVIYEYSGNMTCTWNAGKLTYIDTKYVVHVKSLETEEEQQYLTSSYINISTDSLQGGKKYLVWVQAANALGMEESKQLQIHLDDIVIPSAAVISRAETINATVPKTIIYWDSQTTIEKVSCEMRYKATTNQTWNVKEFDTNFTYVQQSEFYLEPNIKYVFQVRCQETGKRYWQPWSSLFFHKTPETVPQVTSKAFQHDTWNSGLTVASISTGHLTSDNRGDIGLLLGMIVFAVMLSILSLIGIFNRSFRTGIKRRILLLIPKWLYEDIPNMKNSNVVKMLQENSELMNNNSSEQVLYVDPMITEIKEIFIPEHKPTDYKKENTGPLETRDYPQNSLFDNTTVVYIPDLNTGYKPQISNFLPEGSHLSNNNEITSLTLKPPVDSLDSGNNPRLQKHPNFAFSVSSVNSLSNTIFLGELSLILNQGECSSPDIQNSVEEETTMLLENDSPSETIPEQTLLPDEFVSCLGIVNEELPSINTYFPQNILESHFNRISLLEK

[2] = molecular target: T2, Nluc-IL23R fusion protein (human, UniProt Q5VWK5 22-629); experiment: BRET displacement of TAMRA-labelled peptide, Nluc-IL23R membranes
T2 construct: range 22-629; Stably expressed in HEK293 cells; also called hIL-23R; human IL-23R fused to a Nanoluc luciferase enzyme; not shown: Nanoluc luciferase (Promega N1371 plasmid) at the N-terminus
T2 sequence (looked up): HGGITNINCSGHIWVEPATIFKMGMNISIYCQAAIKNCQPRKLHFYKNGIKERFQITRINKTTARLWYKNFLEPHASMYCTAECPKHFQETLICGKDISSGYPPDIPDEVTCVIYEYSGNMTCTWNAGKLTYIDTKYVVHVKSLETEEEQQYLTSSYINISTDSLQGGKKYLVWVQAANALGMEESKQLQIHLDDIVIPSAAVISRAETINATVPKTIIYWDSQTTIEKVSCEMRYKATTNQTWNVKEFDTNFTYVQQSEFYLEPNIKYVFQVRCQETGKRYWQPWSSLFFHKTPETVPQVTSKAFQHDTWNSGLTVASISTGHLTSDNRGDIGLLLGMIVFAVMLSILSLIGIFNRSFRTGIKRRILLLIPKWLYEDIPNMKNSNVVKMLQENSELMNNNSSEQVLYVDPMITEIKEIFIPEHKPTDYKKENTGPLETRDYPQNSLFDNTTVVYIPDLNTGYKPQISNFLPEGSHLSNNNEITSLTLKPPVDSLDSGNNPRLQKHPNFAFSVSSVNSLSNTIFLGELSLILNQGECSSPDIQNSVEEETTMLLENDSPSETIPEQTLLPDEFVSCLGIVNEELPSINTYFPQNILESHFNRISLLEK

[3] = molecular target: T1, human IL-23R endogenously expressed on …; experiment: cell-based or functional assay; remark: listed apart in the source
[4] = molecular target: T1, human IL-23R endogenously expressed on …; experiment: cell-based or functional assay; remark: listed apart in the source
[5] = molecular target: T2, Nluc-IL23R fusion protein; experiment: BRET displacement of TAMRA-labelled peptide, Nluc-IL23R membranes; remark: listed apart in the source
Experimental: (§1) The plate was sealed with light impermeable plate seals, and incubated on a orbital shaker 400 rpm for 2 hours at room temperature. To determine the BRET ratio, the plate seal was removed and 25 μL of the Nanoluc substrate (Promega N1572) diluted 1:500 was added to each well and incubated for 1-2 minutes on an orbital shaker at 400 rpm. […] The BRET ratio was calculated as the fluorescence from the TAMRA/nanoluc bioluminescence. The IC₅₀ for each compound was determined by computer-aided curve fitting using a 4-parameter logistic (4PL) non-linear model.

[6] = molecular target: T2, Nluc-IL23R fusion protein; experiment: as above; remark: listed apart in the source
Experimental: as §1

IC50 (pSTAT3) [1]: 44.6 nM
Ki [2]: 9.86 nM
IC50 (pSTAT3) [3]: 44.6 nM
IC50 (pSTAT3) [4]: 44.6 nM
Ki [5]: 9.86 nM
Ki [6]: 9.87 nM
Binder: [3Amb]SCWQCW[2Nal]LER-NH2 (lactam N-10; linker 3-6 via CH2COCH2) [Compound 37]
